# The nanobody polyreactivity screen of Harvey et al. (2022)
# Experiment: yeast display, Sf9 membrane polyspecificity reagent, FACS + sequencing; frameworks hold sequencing errors
# Procedure, shortened: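 Galactose induction of a Saccharomyces cerevisiae BJ5465 synthetic nanobody display library ran 36–48 hours. The cells were then stained for 1 hour at 4 °C with 10% biotinylated, detergent-solubilized Sf9 membrane reagent, pulled down on streptavidin microbeads and FACS-sorted into low and high (top ~1%) gates on expression and reagent-binding fluorescence. Labels for polyreactivity follow the gate of origin.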
row,Sequence,polyreactivity (PSR sort gate)
1,QVQLVESGGGLVQAGGSLRLSCAASGRILGVYVMGWYRQAPGKERELVAAISGGGRTNYADSVKGRFTISRDNAKNTVYLQMNSLKPEDTAVYYCNAERPYQYYPGIYRWYYYWGQGTQVTVSS,low polyreactivity
2,QVQLVESGGGLVQAGGSLRLSCAASGRILGWNAMGWYRQAPGKERELVAAISTSGTDTYYADSVKGRFTISSDNAKNTVYLQMNCLIPEDTAVYYCAADTVTIYWGLSVSYGCWGQGTQVTVSS,low polyreactivity
3,QVQLVESGGGLVQAGGSLRLSCAASGRILGYYAMGGSRQAPGKERELVAAISSGDSTNYADSVKGRFTISRDNAKNTVYLQMNSLKPEDTAVYYCAAKGWIWNPYNYWGQGTQGTVSS,low polyreactivity
4,QVQLVESGGGLVQAGGSLRLSCAASGRILGYYAMGWYRQAPGKERDLVAAISRAGSTNYADSVKGRFTISRDNAKNTVYLQMNSLKAEDTAVYYCAARPYRRGYNYWGQGTQVTVSS,high polyreactivity
5,QVQLVESGGGLVQAGGSLRLSCAASGRILGYYAMGWYRQAPGKERELVAAITYSGGSTYYADSVKGRFTISRDNAKNTVYLQMNSLKPEDTAVYYCAADKWLLGLYGSTWNDYWGQGTQVTVSS,low polyreactivity
6,QVQLVESGGGLVQAGGSLRLSCAASGRILHRYVMGWYIQAPGKERELVAAISSGGSTTYADSVKGRFTISRDNAKNTVYLQIYSLKPEDTAVYYCAKYSFWSTSRMDYWGQGTQVTVSS,low polyreactivity
7,QVQLVESGGGLVQAGGSLRLSCAASGRILHRYVMGWYRQAPGKERELVAAISSGGSTTYADSVKGRFTISRDNAKYTVYLQMNSLKPEDTAVYYCAADARYSRRYYYWGQGTQVTVSS,low polyreactivity
8,QVQLVESGGGLVQAGGSLRLSCAASGRILIRYAMGWYRQAPGKERELVASISTRGASTSYADSVKGRFTISRDNAKNTVYLQMNSLKPEDTAVYYCNARGSYPPYRSYGYWGQGTQVTVSS,low polyreactivity
9,QVQLVESGGGLVQAGGSLRLSCAASGRILKRYAMGWYRQAPGKERELVAAINWNGGSTYYADSVKGRFTISRDNAKNTVYLQMNSLKPEDTAVYYCAAYYGTPRGFDYWGQGTQVTVSS,high polyreactivity
10,QVQLVESGGGLVQAGGSLRLSCAASGRILKYYAMAWYREAPGKERELVAAIWSGGSTYYADSVKGRFTISRDNAKNTVYLLMNSLKPEDTAVYYCNAEYQWGGYGYDYWGQGTQVTVSS,low polyreactivity
11,QVQLVESGGGLVQAGGSLRLSCAASGRILLRNVMGWYRQAPGKERELVAVITRTGITYYADSVMGRFTITRDNAKNTVYLQMTSLKPEDTAVYYCAAGLPKYEHDYWGQGTQVTVSS,low polyreactivity
12,QVQLVESGGGLVQAGGSLRLSCAASGRILLTYAMGWYRQAPGKERELVAAISSDSRTYYADSVKGRFTISRDNAKNTVYLQMNSLIPEDTAVYYCVRRRYKYDYWGQGTQVTVSS,low polyreactivity
13,QVQLVESGGGLVQAGGSLRLSCAASGRILPFNAMGWHRQAPGKERELVDAIRWRGSSTYYADSVKGRFTISRDNAKNTVYLQMNSLKPEDTAVYYCAAPSSVRGKVISADYGYWGQGTQVTVSS,high polyreactivity
14,QVQLVESGGGLVQAGGSLRLSCAASGRILPRNAMGWYRQAPGKERELVAGISSDGSPNYADSVKGRFTISRDKAKNTVYLQMNSLNPEDTAVYYCYADYLFYAFDYWGQGTQVTVSS,low polyreactivity
15,QVQLVESGGGLVQAGGSLRLSCAASGRILRGNAMGGYRQAPGKERELVADINYSDGSTYYADSVKGRFTISRDNAKNTVYLQMNSLKPEDTAVYYCAKKNPLVFTSGMDYWGQGTQVTVSS,low polyreactivity
16,QVQLVESGGGLVQAGGSLRLSCAASGRILRINPMGWYRQAPGKERELVAAISGSGGTTYYADSVKGRFTISRDNAKNTVYLQMNSLKPEDTAVYYCNKAIWYAEYDYWGQGTQVTVSS,low polyreactivity
17,QVQLVESGGGLVQAGGSLRLSCAASGRILRTYAMGWYIQAPGKERELVAAISRSGGSTYYADSVKGRFTLSRDNAKNTVAVQMTSLKPEDTAVYYCHKAYGGRGSKDEYWGQGTQVTVSS,high polyreactivity
18,QVQLVESGGGLVQAGGSLRLSCAASGRILRYYAMGWYRQAPGKERELVAVITSSDGSTYYADSVKGRFTISRDNAKNTVYLQMNSLKPEDTAVYYCAADYHWYRRPGYNYWGQGTQVTVSS,low polyreactivity
19,QVQLVESGGGLVQAGGSLRLSCAASGRILSPYAMGWYRQAPGKERELVAAITSGGRTHYADSVKGRFTISRDNAKNTVYLQMNSLKRVDTAVYYCAARVRSGWWVRDDYWGQGTQVTVSS,high polyreactivity
20,QVQLVESGGGLVQAGGSLRLSCAASGRILSSYAMGWNRQAPGKERELVAVISSGGNTYYADSVKGRFTISRDNAKNTVFLQMNSLKPEDTAVYYCNAARRGYLRRYYWGQGTQVNVSS,high polyreactivity
21,QVQLVESGGGLVQAGGSLRLSCAASGRILTFNTMGWYRQAPGKERELVAAIRSGGSTYYADSVKGRFTISRDNAKNTVFLQMNSLKPEDTAVYYCRGMGYWGQGTQVTVSS,high polyreactivity

row,Sequence,polyreactivity (PSR sort gate)
1,QVQLVESGGGLVQAGGSLRLSCAASGRILTSNAMGWYRQAPGKERELVAAISWSGGSTYYADSVKGSFTISRDNAKNTVYLQMNSLKPDDSAVYYCAAPFTTTFDYSGQGTQVTVSS,low polyreactivity
2,QVQLVESGGGLVQAGGSLRLSCAASGRILTYYVMGWYRQAPGKERELVAAITDSGGITYADSVKGRFTISRDNAKNTVYLQMNSLKPEDTAVYYCAAVRFFLYYFDFSAYDYWGQGTQVTVSS,low polyreactivity
3,QVQLVESGGGLVQAGGSLRLSCAASGRILVGYAMGRYRQAPGKERELVAAINRSGSSTYYADSVKGRFTISRDNAKNTVYLQRNSLNPEDTAVYYCNAPSGNRYGPRYDYWGQGTQVTVSS,high polyreactivity
4,QVQLVESGGGLVQAGGSLRLSCAASGRILVPYAMGWYRQAPGKERELVAAINPRGGRTYYADSVKGRFTISRDNAKYTVYLQMNSLKPEDTAVYYCNALAHQYHRYEFGYWGQGTQVTVSS,low polyreactivity
5,QVQLVESGGGLVQAGGSLRLSCAASGRILVWYAMAWYRQAPGKERELVASISSTGGSTYYADSVKGRFTISRDNAKNTVYLQMNSLKPEDTAVYYCAAVIRSQDGRGYDYWGQGTQVTVSS,high polyreactivity
6,QVQLVESGGGLVQAGGSLRLSCAASGRILWFYAMGWYRQAPGKERELVAAISWNGGSTYYADSVKGRFTISRDNAKNTVYLQMNSLKPEDTAVYYCAARPFHIHLSLEYNYWGQGTQVTVSS,low polyreactivity
7,QVQLVESGGGLVQAGGSLRLSCAASGRILWGYAMGWYRQATGKERELVATITRGGSTNYADSVKGRFTISRDNAKNTFYLKMNRVKPEDTAFYDCAAGELYIVNYTYYFEMDYWGEGTQVTVSS,high polyreactivity
8,QVQLVESGGGLVQAGGSLRLSCAASGRILWQYAMGWYRPAPGKERELVAAITSSGADTYYADSVKGRFTISRDNAKNTVYLQMNSLKPEDTAVYYCNADASAVVYKFGFGYWGQGTQVTVSS,low polyreactivity
9,QVQLVESGGGLVQAGGSLRLSCAASGRILWSYAMGWYRQAPGKERELVAAITSGTRTNYADSVKGRFTISRDNAKNTVYLQMNSLKPEDTAVYYCAADRYWPAFYRTRGWDYYYWGQGTQVTVSS,high polyreactivity
10,QVQLVESGGGLVQAGGSLRLSCAASGRILYCYTMGWYRQAPGKERELVAGITTRGGNTYYADSVKGRFTISRDNAKNSVYLQMNSLKPEDTAVYYCAARFSGPARMDYWGQGTQVTVSS,low polyreactivity
11,QVQLVESGGGLVQAGGSLRLSCAASGRILYGNVMGWYRQAPGKERELVAAIDSSGATTYYADSVKGRITISRDNAKNTVYLQMNSLKPDDTAVYYCAAEVTSFSFGGDATEYYWGQGTQVTVSS,low polyreactivity
12,QVQLVESGGGLVQAGGSLRLSCAASGRILYGYALGWYRQAPGKERELVAAISWSGTRTYDADSVQGRFTISRDNAKNTVYLQMNSLKPEDTAVYYCAARTHVPAEYDYWGQGTQVTVSS,high polyreactivity
13,QVQLVESGGGLVQAGGSLRLSCAASGRILYIYAMGWYRQAPGKERELVAAIRSSGGSTYYADSVKGRFTISRDNAKNTVYFQMNSLKPEDTAVYYCAAPDFPKYYPTAYLQADEYWGQGTQVTVSS,high polyreactivity
14,QVQLVESGGGLVQAGGSLRLSCAASGRILYKYSMGWYRQAPGKERELVAAINRSGGRTYYADSVKGRFTISRDNAKNTVYIQMNSLKPEDTAVYYCAARNPTSYGQFDYLGQGTQVTVSS,high polyreactivity
15,QVQLVESGGGLVQAGGSLRLSCAASGRILYPYAMGWYRQAPGKERESVAAITFRGGNTYYADSVKGRFTISRDQAKNTVYLQMNSLKPEDTAVYYCAAPQRWTYAYDYWGQGTQVTVSS,high polyreactivity
16,QVQLVESGGGLVQAGGSLRLSCAASGRILYWYAMGWYRQAPGKERELVAGIDWSGGSTYYADSVKGRFTISRDNAKNTVYLQMNSLKPEDTAVNYCNAVQNRGRGSHRGESTYYYWGQGTQVTVSS,low polyreactivity
17,QVQLVESGGGLVQAGGSLRLSCAASGRISAYNAMGWYRQAPGKERELVAGISTRTGSTYYADSVKGRFTISRDNAKNTVYLQMNSLKPEDTAVYYCAAYFWGVYFFGMDYWGQGTQVTVSS,low polyreactivity
18,QVQLVESGGGLVQAGGSLRLSCAASGRISESNDMGWYRPAPGKERELVAAISSSGGSTYYADSVKGRFTISRDNAKNTVYLQMNSLKPEDTAVDYCNAVYYRTVLKIGVYEYDYWGQGTQVTVSS,low polyreactivity
19,QVQLVESGGGLVQAGGSLRLSCAASGRISESNDMGWYRQAPGKERELVAAISSSGGSTYYADSVKGRFTISRDNAKNTVYLQMNSLKPEDTAVYYCAAQTGYSYGITWQFTKYNYWGQGTQVTVSS,low polyreactivity
20,QVQLVESGGGLVQAGGSLRLSCAASGRISFRYAMGWYRPAPGKERELVAAINRGGITNYADSVKGRFTISRDNAKNTVYLQMNSLKPEDTAVYYCAARWRGSGGFDYWGQGTQVTVSS,high polyreactivity
